One may read the Km as the substrate concentration at which the rate is half of its maximum. The term kcat denotes the number of substrate molecules converted per active site and unit of time at saturation.

One protein from PMC3700353 can be followed below.

Substrate in the data set: N[C@@H](CC(=O)c1ccccc1NC=O)C(=O)O
Kind of data set: purified protein. It is filed as biochemical, Drosophila melanogaster. Conditions: 50 mM potassium phosphate pH 7.4, 22 °C, 0.02–1.00 mM NFK.

B1: KFase (kynurenine formamidase) (Drosophila melanogaster) (protein)
chain: MYNPRCKDLDRDYFPSYHTTRFQDQPEPNLAVLEHFVRVTKQHGRELTEKQGITVDHLRYGEGRQLVDVFYSEKTTNQAPLFVFVHGGYWQEMDMSMSCSIVGPLVRRGYRVAVMDYNLCPQVTLEQLMTQFTHFLNWIFDYTEMTKVSSLTFAGHSAGAHLLAQILMRPNVITAQRSKMVWALIFLCGVYDLRELSNLESVNPKNILGLNERNIESVSPMLWEYTDVTVWNSTKIYVVAAEHDSTTFIEQSRHYADVLRKKGYKASFTLFKGYDHFDIIEETAIDDSDVSRFLRNIEIE
Take B1: the Km stood at 320 ± 60 µM and the kcat was 26.4 ± 4.45 s⁻¹.
